B1: CPEB3 Ribozyme (parent)
chain: GGGGGCCACAGCAGAAGCGUUCACGUCGCGGCCCCUGUCAGAUUCUGGUGAAUCUGCGAAUUCUGCUGU

Variants of: B1
Assay: self-cleavage, relative activity (ratio to wild type); higher = more cleavage; co-transcriptional

Variant | self-cleavage
GGGGGCCACAGCAGAAGCGUUGACGUCGCGGCCCCCGUCAGAUUCUGGUGAAUCUGCGAAUUCUGCUGU | 0.236
GGGGGCCACAGCAGAAGCGUUGACGUCGCGGCCCCGGUCAGAUUCUGGUGAAUCUGCGAAUUCUGCUGU | 0.143
GGGGGCCACAGCAGAAGCGUUGACGUCGCGGCCCCUGACAGAUUCUGGUGAAUCUGCGAAUUCUGCUGU | 0.165
GGGGGCCACAGCAGAAGCGUUGACGUCGCGGCCCCUGCCAGAUUCUGGUGAAUCUGCGAAUUCUGCUGU | 0.232
GGGGGCCACAGCAGAAGCGUUGACGUCGCGGCCCCUGGCAGAUUCUGGUGAAUCUGCGAAUUCUGCUGU | 0.177
GGGGGCCACAGCAGAAGCGUUGACGUCGCGGCCCCUGUCAGAAUCUGGUGAAUCUGCGAAUUCUGCUGU | 0.114
GGGGGCCACAGCAGAAGCGUUGACGUCGCGGCCCCUGUCAGACUCUGGUGAAUCUGCGAAUUCUGCUGU | 0.174
GGGGGCCACAGCAGAAGCGUUGACGUCGCGGCCCCUGUCAGAGUCUGGUGAAUCUGCGAAUUCUGCUGU | 0.133
GGGGGCCACAGCAGAAGCGUUGACGUCGCGGCCCCUGUCAGAUACUGGUGAAUCUGCGAAUUCUGCUGU | 0.158
GGGGGCCACAGCAGAAGCGUUGACGUCGCGGCCCCUGUCAGAUCCUGGUGAAUCUGCGAAUUCUGCUGU | 0.22
GGGGGCCACAGCAGAAGCGUUGACGUCGCGGCCCCUGUCAGAUUCAGGUGAAUCUGCGAAUUCUGCUGU | 0.205
GGGGGCCACAGCAGAAGCGUUGACGUCGCGGCCCCUGUCAGAUUCCGGUGAAUCUGCGAAUUCUGCUGU | 0.192
GGGGGCCACAGCAGAAGCGUUGACGUCGCGGCCCCUGUCAGAUUCUGGCGAAUCUGCGAAUUCUGCUGU | 0.123
GGGGGCCACAGCAGAAGCGUUGACGUCGCGGCCCCUGUCAGAUUCUGGGGAAUCUGCGAAUUCUGCUGU | 0.153
GGGGGCCACAGCAGAAGCGUUGACGUCGCGGCCCCUGUCAGAUUCUGGUGAACCUGCGAAUUCUGCUGU | 0.184
GGGGGCCACAGCAGAAGCGUUGACGUCGCGGCCCCUGUCAGAUUCUGGUGAAGCUGCGAAUUCUGCUGU | 0.129
GGGGGCCACAGCAGAAGCGUUGACGUCGCGGCCCCUGUCAGAUUCUGGUGAAUCAGCGAAUUCUGCUGU | 0.116
GGGGGCCACAGCAGAAGCGUUGACGUCGCGGCCCCUGUCAGAUUCUGGUGAAUCCGCGAAUUCUGCUGU | 0.198
GGGGGCCACAGCAGAAGCGUUGACGUCGCGGCCCCUGUCAGAUUCUGGUGAAUCGGCGAAUUCUGCUGU | 0.14
GGGGGCCACAGCAGAAGCGUUGACGUCGCGGCCCCUGUCAGAUUCUGGUGAAUCUGCGAACUCUGCUGU | 0.167
GGGGGCCACAGCAGAAGCGUUGACGUCGCGGCCCCUGUCAGAUUCUGGUGAAUCUGCGAAGUCUGCUGU | 0.257
GGGGGCCACAGCAGAAGCGUUGACGUCGCGGCCCCUGUCAGAUUCUGGUGAAUCUGCGAAUACUGCUGU | 0.194
GGGGGCCACAGCAGAAGCGUUGACGUCGCGGCCCCUGUCAGAUUCUGGUGAAUCUGCGAAUCCUGCUGU | 0.117
GGGGGCCACAGCAGAAGCGUUGACGUCGCGGCCCCUGUCAGAUUCUGGUGAAUCUGCGAAUGCUGCUGU | 0.162
GGGGGCCACAGCAGAAGCGUUGACGUCGCGGCCCCUGUCAGAUUCUGGUGAAUCUGCGAAUUCAGCUGU | 0.202
GGGGGCCACAGCAGAAGCGUUGACGUCGCGGCCCCUGUCAGAUUCUGGUGAAUCUGCGAAUUCCGCUGU | 0.205

Variant | self-cleavage
GGGGGCCACAGCAGAAGCGUUGACGUCGCGGCCCCUGUCAGAUUCUGGUGAAUCUGCGAAUUCUGCAGU | 0.242
GGGGGCCACAGCAGAAGCGUUGACGUCGCGGCCCCUGUCAGAUUCUGGUGAAUCUGCGAAUUCUGCCGU | 0.175
GGGGGCCACAGCAGAAGCGUUGACGUCGCGGCCCCUGUCAGAUUCUGGUGAAUCUGCGAAUUCUGCGGU | 0.121
GGGGGCCACAGCAGAAGCGUUGACGUCGCGGCCCCUGUCAGAUUCUGGUGAAUCUGCGAAUUCUGCUGC | 0.374
GGGGGCCACAGCAGAAGCGUUUACGUCGCGGCCCCUGUCAGAUUCUGGUGAAUCUGCGAAUUCUGCUGU | 0.337
GGGGGCCACAGCAGAAGCGUUUGCGUCGCGGCCCCUGUCAGAUUCUGGUGAAUCUGCGAAUUCUGCUGU | 0.307
GGGGGCCACAGCAGAAGCGUUUUCGUCGCGGCCCCUGUCAGAUUCUGGUGAAUCUGCGAAUUCUGCUGU | 0.384
GGGGGCCACAGCAGAAGCGUUUACGUCGCGGCCCCUGUCAGCUUCUGGUGAAUCUGCGAAUUCUGCUGU | 0.247
GGGGGCCACAGCAGAAGCGUUUACGUCGCGGCCCCUGUCAGUUUCUGGUGAAUCUGCGAAUUCUGCUGU | 0.27
GGGGGCCACAGCAGAAGCGUUUACGUCGCGGCCCCUGUCAGAUUCUGGUGCAUCUGCGAAUUCUGCUGU | 0.291
GGGGGCCACAGCAGAAGCGUUUACGUCGCGGCCCCUGUCAGAUUCUGGUGGAUCUGCGAAUUCUGCUGU | 0.314
GGGGGCCACAGCAGAAGCGUUUACGUCGCGGCCCCUGUCAGAUUCUGGUGACUCUGCGAAUUCUGCUGU | 0.233
GGGGGCCACAGCAGAAGCGUUUACGUCGCGGCCCCUGUCAGAUUCUGGUGAGUCUGCGAAUUCUGCUGU | 0.379
GGGGGCCACAGCAGAAGCGUUUACGUCGCGGCCCCUGUCAGAUUCUGGUGAAUCUGCGCAUUCUGCUGU | 0.188
GGGGGCCACAGCAGAAGCGUUUACGUCGCGGCCCCUGUCAGAUUCUGGUGAAUCUGCGUAUUCUGCUGU | 0.201
GGGGGCCACAGCAGAAGCGUUUACGUCGCGGCCCCUGUCAGAUUCUGGUGAAUCUGCGACUUCUGCUGU | 0.158
GGGGGCCACAGCAGAAGCGUUUACGUCGCGGCCCCUGUCAGAUUCUGGUGAAUCUGCGAGUUCUGCUGU | 0.223
GGGGGCCACAGCAGAAGCGUUUACGUCGCGGCCCCUGUCAGAUUCUGGUGAAUCUGCGAUUUCUGCUGU | 0.137
GGGGGCCACAGCAGAAGCGUUUAGGUCGCGGCCCCUGUCAGAUUCUGGUGAAUCUGCGAAUUCUGCUGU | 0.169
GGGGGCCACAGCAGAAGCGUUUAUGUCGCGGCCCCUGUCAGAUUCUGGUGAAUCUGCGAAUUCUGCUGU | 0.105
GGGGGCCACAGCAGAAGCGUUUACGUAGCGGCCCCUGUCAGAUUCUGGUGAAUCUGCGAAUUCUGCUGU | 0.2
GGGGGCCACAGCAGAAGCGUUUACGUGGCGGCCCCUGUCAGAUUCUGGUGAAUCUGCGAAUUCUGCUGU | 0.215
GGGGGCCACAGCAGAAGCGUUUACGUUGCGGCCCCUGUCAGAUUCUGGUGAAUCUGCGAAUUCUGCUGU | 0.164
GGGGGCCACAGCAGAAGCGUUUACGUCGGGGCCCCUGUCAGAUUCUGGUGAAUCUGCGAAUUCUGCUGU | 0.152
GGGGGCCACAGCAGAAGCGUUUACGUCGUGGCCCCUGUCAGAUUCUGGUGAAUCUGCGAAUUCUGCUGU | 0.14
GGGGGCCACAGCAGAAGCGUUUACGUCGCGGACCCUGUCAGAUUCUGGUGAAUCUGCGAAUUCUGCUGU | 0.17

Variant | self-cleavage
GGGGGCCACAGCAGAAGCGUUUACGUCGCGGUCCCUGUCAGAUUCUGGUGAAUCUGCGAAUUCUGCUGU | 0.33
GGGGGCCACAGCAGAAGCGUUUACGUCGCGGCACCUGUCAGAUUCUGGUGAAUCUGCGAAUUCUGCUGU | 0.176
GGGGGCCACAGCAGAAGCGUUUACGUCGCGGCGCCUGUCAGAUUCUGGUGAAUCUGCGAAUUCUGCUGU | 0.18
GGGGGCCACAGCAGAAGCGUUUACGUCGCGGCUCCUGUCAGAUUCUGGUGAAUCUGCGAAUUCUGCUGU | 0.315
GGGGGCCACAGCAGAAGCGUUUACGUCGCGGCCACUGUCAGAUUCUGGUGAAUCUGCGAAUUCUGCUGU | 0.22
GGGGGCCACAGCAGAAGCGUUUACGUCGCGGCCGCUGUCAGAUUCUGGUGAAUCUGCGAAUUCUGCUGU | 0.202
GGGGGCCACAGCAGAAGCGUUUACGUCGCGGCCUCUGUCAGAUUCUGGUGAAUCUGCGAAUUCUGCUGU | 0.332
GGGGGCCACAGCAGAAGCGUUUACGUCGCGGCCCAUGUCAGAUUCUGGUGAAUCUGCGAAUUCUGCUGU | 0.178
GGGGGCCACAGCAGAAGCGUUUACGUCGCGGCCCUUGUCAGAUUCUGGUGAAUCUGCGAAUUCUGCUGU | 0.183
GGGGGCCACAGCAGAAGCGUUUACGUCGCGGCCCCUGUAAGAUUCUGGUGAAUCUGCGAAUUCUGCUGU | 0.148
GGGGGCCACAGCAGAAGCGUUUACGUCGCGGCCCCUGUGAGAUUCUGGUGAAUCUGCGAAUUCUGCUGU | 0.207
GGGGGCCACAGCAGAAGCGUUUACGUCGCGGCCCCUGUCAGAUUAUGGUGAAUCUGCGAAUUCUGCUGU | 0.33
GGGGGCCACAGCAGAAGCGUUUACGUCGCGGCCCCUGUCAGAUUGUGGUGAAUCUGCGAAUUCUGCUGU | 0.25
GGGGGCCACAGCAGAAGCGUUUACGUCGCGGCCCCUGUCAGAUUUUGGUGAAUCUGCGAAUUCUGCUGU | 0.318
GGGGGCCACAGCAGAAGCGUUUACGUCGCGGCCCCUGUCAGAUUCUGGUGAAUAUGCGAAUUCUGCUGU | 0.19
GGGGGCCACAGCAGAAGCGUUUACGUCGCGGCCCCUGUCAGAUUCUGGUGAAUCUGAGAAUUCUGCUGU | 0.166
GGGGGCCACAGCAGAAGCGUUUACGUCGCGGCCCCUGUCAGAUUCUGGUGAAUCUGCGAAUUAUGCUGU | 0.178
GGGGGCCACAGCAGAAGCGUUUACGUCGCGGCCCCUGUCAGAUUCUGGUGAAUCUGCGAAUUGUGCUGU | 0.156
GGGGGCCACAGCAGAAGCGUUUACGUCGCGGCCCCUGUCAGAUUCUGGUGAAUCUGCGAAUUUUGCUGU | 0.265
GGGGGCCACAGCAGAAGCGUUUACGUCGCGGCCCCUGUCAGAUUCUGGUGAAUCUGCGAAUUCUGAUGU | 0.19
GGGGGCCACAGCAGAAGCGUUUACGUCGCGGCCCCUGUCAGAUUCUGGUGAAUCUGCGAAUUCUGGUGU | 0.132
GGGGGCCACAGCAGAAGCGUUUACAUCGCGGCCCCUGUCAGAUUCUGGUGAAUCUGCGAAUUCUGCUGU | 0.164
GGGGGCCACAGCAGAAGCGUUUACCUCGCGGCCCCUGUCAGAUUCUGGUGAAUCUGCGAAUUCUGCUGU | 0.153
GGGGGCCACAGCAGAAGCGUUUACUUCGCGGCCCCUGUCAGAUUCUGGUGAAUCUGCGAAUUCUGCUGU | 0.153
GGGGGCCACAGCAGAAGCGUUUACGUCACGGCCCCUGUCAGAUUCUGGUGAAUCUGCGAAUUCUGCUGU | 0.117
GGGGGCCACAGCAGAAGCGUUUACGUCUCGGCCCCUGUCAGAUUCUGGUGAAUCUGCGAAUUCUGCUGU | 0.148
